Measurements published in patent publication US20100285506A1.

Key:
[1] = molecular target: MPT64 (Mycobacterium tuberculosis); test: CAPILIA TB kit; pretreated patient sputum, sample number 6, smear 3+
[2] = molecular target: MPT64 (Mycobacterium tuberculosis); test: CAPILIA TB kit; pretreated patient sputum, sample number 1, smear +
[3] = molecular target: MPT64 (Mycobacterium tuberculosis); test: CAPILIA TB kit; pretreated patient sputum, sample number 7, smear 3+
[4] = molecular target: MPT64 (Mycobacterium tuberculosis); test: CAPILIA TB kit; pretreated patient sputum, sample number 3, smear +
[5] = molecular target: MPT64 (Mycobacterium tuberculosis); test: CAPILIA TB kit; pretreated patient sputum, sample number 4, smear 2+
[6] = molecular target: MPT64 (Mycobacterium tuberculosis); test: CAPILIA TB kit; pretreated patient sputum, sample number 2, smear +
[7] = molecular target: MPT64 (Mycobacterium tuberculosis); test: CAPILIA TB kit; pretreated patient sputum, sample number 5, smear 2+
[8] = molecular target: MPT64 (Mycobacterium tuberculosis); test: CAPILIA TB kit; pretreated patient sputum, sample number 8, smear 3+

Substance: CAPILIA TB (trade name; manufactured by TAUNS LABORATORIES INC.)
- Absorbance [1]: 0
- Absorbance [2]: 0
- Absorbance [3]: 0
- Absorbance [4]: 0
- Absorbance [5]: 0
- Absorbance [6]: 0
- Absorbance [7]: 0
- Absorbance [8]: 23
